{"source": "the supplement of paper PMC7125110", "parents": {"B1": {"name": "glmS ribozyme (parent)", "chain": "AUAAAAGCGCCAGAACUACAGAAAUGUAGUUGACGAGGAGGAGGUUUAUCGAAUUUUCGGCGGAUGCCUCCAAA"}}, "conditions_in_all_cases": "with glucosamine-6-phosphate", "key": {"[1]": {"variants_of": "B1", "experiment": "self-cleavage kobs at 40 uM GlcN6P; higher = faster cleavage; RNA array", "procedure,_shortened": "(§1)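 E. coli RNA polymerase transcribed barcoded ribozyme variants in situ on sequenced MiSeq chips, which were tracked via a hybridised Cy3 probe at 37 °C. Tiles were imaged over ~14 h after glucosamine-6-phosphate (40 μM to 10 mM) in HEPES/KCl/Mg(OAc)2 buffer was flowed in. Normalised per-tile medians were fit to one- or two-exponential decays for kobs, and kcat and KM came from weighted Michaelis–Menten fits.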"}, "[2]": {"variants_of": "B1", "experiment": "self-cleavage kobs at 160 uM GlcN6P; higher = faster cleavage; RNA array", "procedure,_shortened": "as §1"}, "[3]": {"variants_of": "B1", "experiment": "self-cleavage kobs at 640 uM GlcN6P; higher = faster cleavage; RNA array", "procedure,_shortened": "as §1"}, "[4]": {"variants_of": "B1", "experiment": "self-cleavage kobs at 2500 uM GlcN6P; higher = faster cleavage; RNA array", "procedure,_shortened": "as §1"}, "[5]": {"variants_of": "B1", "experiment": "self-cleavage kobs at 10000 uM GlcN6P; higher = faster cleavage; RNA array", "procedure,_shortened": "as §1"}}, "note": "± gives the standard error. This sample holds only a part of the variants without activity.", "data": [{"variant": "U45A U55G", "values": [{"measurement": "self-cleavage kobs at 40 uM GlcN6P", "setting": "[1]", "result": "0.00178 ± 0.00026", "unit": "s⁻¹"}, {"measurement": "self-cleavage kobs at 160 uM GlcN6P", "setting": "[2]", "result": "0.00389 ± 0.0012", "unit": "s⁻¹"}, {"measurement": "self-cleavage kobs at 640 uM GlcN6P", "setting": "[3]", "result": "0.00532 ± 0.0012", "unit": "s⁻¹"}, {"measurement": "self-cleavage kobs at 2500 uM GlcN6P", "setting": "[4]", "result": "0.00894 ± 0.0023", "unit": "s⁻¹"}, {"measurement": "self-cleavage kobs at 10000 uM GlcN6P", "setting": "[5]", "result": "0.0415 ± 0.013", "unit": "s⁻¹"}]}, {"variant": "A14G U56C G59U", "values": [{"measurement": "self-cleavage kobs at 40 uM GlcN6P", "setting": "[1]", "result": "< 1e-05", "unit": "s⁻¹"}, {"measurement": "self-cleavage kobs at 10000 uM GlcN6P", "setting": "[5]", "result": "2.7e-05 ± 1.3e-05", "unit": "s⁻¹"}]}, {"variant": "G7C C11U A42G A64U", "values": [{"measurement": "self-cleavage kobs at 40 uM GlcN6P", "setting": "[1]", "result": "< 1e-05", "unit": "s⁻¹"}, {"measurement": "self-cleavage kobs at 10000 uM GlcN6P", "setting": "[5]", "result": "< 1e-05", "unit": "s⁻¹"}]}, {"variant": "C8A A12G", "values": [{"measurement": "self-cleavage kobs at 40 uM GlcN6P", "setting": "[1]", "result": "< 1e-05", "unit": "s⁻¹"}, {"measurement": "self-cleavage kobs at 160 uM GlcN6P", "setting": "[2]", "result": "< 1e-05", "unit": "s⁻¹"}, {"measurement": "self-cleavage kobs at 640 uM GlcN6P", "setting": "[3]", "result": "< 1e-05", "unit": "s⁻¹"}, {"measurement": "self-cleavage kobs at 2500 uM GlcN6P", "setting": "[4]", "result": "< 1e-05", "unit": "s⁻¹"}, {"measurement": "self-cleavage kobs at 10000 uM GlcN6P", "setting": "[5]", "result": "< 1e-05", "unit": "s⁻¹"}]}, {"variant": "G29U G62U", "values": [{"measurement": "self-cleavage kobs at 40 uM GlcN6P", "setting": "[1]", "result": "< 1e-05", "unit": "s⁻¹"}, {"measurement": "self-cleavage kobs at 160 uM GlcN6P", "setting": "[2]", "result": "< 1e-05", "unit": "s⁻¹"}, {"measurement": "self-cleavage kobs at 640 uM GlcN6P", "setting": "[3]", "result": "< 1e-05", "unit": "s⁻¹"}, {"measurement": "self-cleavage kobs at 2500 uM GlcN6P", "setting": "[4]", "result": "< 1e-05", "unit": "s⁻¹"}, {"measurement": "self-cleavage kobs at 10000 uM GlcN6P", "setting": "[5]", "result": "< 1e-05", "unit": "s⁻¹"}]}, {"variant": "C8A A53U", "values": [{"measurement": "self-cleavage kobs at 40 uM GlcN6P", "setting": "[1]", "result": "< 1e-05", "unit": "s⁻¹"}, {"measurement": "self-cleavage kobs at 160 uM GlcN6P", "setting": "[2]", "result": "< 1e-05", "unit": "s⁻¹"}, {"measurement": "self-cleavage kobs at 640 uM GlcN6P", "setting": "[3]", "result": "< 1e-05", "unit": "s⁻¹"}, {"measurement": "self-cleavage kobs at 2500 uM GlcN6P", "setting": "[4]", "result": "< 1e-05", "unit": "s⁻¹"}, {"measurement": "self-cleavage kobs at 10000 uM GlcN6P", "setting": "[5]", "result": "< 1e-05", "unit": "s⁻¹"}]}, {"variant": "C8A C50G A53U C67U", "values": [{"measurement": "self-cleavage kobs at 40 uM GlcN6P", "setting": "[1]", "result": "0.000239 ± 5.6e-05", "unit": "s⁻¹"}, {"measurement": "self-cleavage kobs at 640 uM GlcN6P", "setting": "[3]", "result": "0.000168 ± 5.7e-05", "unit": "s⁻¹"}, {"measurement": "self-cleavage kobs at 2500 uM GlcN6P", "setting": "[4]", "result": "0.000626 ± 0.00028", "unit": "s⁻¹"}, {"measurement": "self-cleavage kobs at 10000 uM GlcN6P", "setting": "[5]", "result": "0.000304 ± 5e-05", "unit": "s⁻¹"}]}, {"variant": "A6G A14U U65G", "values": [{"measurement": "self-cleavage kobs at 40 uM GlcN6P", "setting": "[1]", "result": "< 1e-05", "unit": "s⁻¹"}]}, {"variant": "G41U C70G", "values": [{"measurement": "self-cleavage kobs at 40 uM GlcN6P", "setting": "[1]", "result": "0.00157 ± 0.00018", "unit": "s⁻¹"}, {"measurement": "self-cleavage kobs at 160 uM GlcN6P", "setting": "[2]", "result": "0.00262 ± 0.00038", "unit": "s⁻¹"}, {"measurement": "self-cleavage kobs at 640 uM GlcN6P", "setting": "[3]", "result": "0.00612 ± 0.00092", "unit": "s⁻¹"}, {"measurement": "self-cleavage kobs at 2500 uM GlcN6P", "setting": "[4]", "result": "0.00944 ± 0.0019", "unit": "s⁻¹"}, {"measurement": "self-cleavage kobs at 10000 uM GlcN6P", "setting": "[5]", "result": "0.0513 ± 0.014", "unit": "s⁻¹"}]}, {"variant": "C50G G63A", "values": [{"measurement": "self-cleavage kobs at 40 uM GlcN6P", "setting": "[1]", "result": "5.7e-05 ± 1.5e-05", "unit": "s⁻¹"}, {"measurement": "self-cleavage kobs at 160 uM GlcN6P", "setting": "[2]", "result": "0.000484 ± 0.00023", "unit": "s⁻¹"}, {"measurement": "self-cleavage kobs at 640 uM GlcN6P", "setting": "[3]", "result": "4e-05 ± 1.7e-05", "unit": "s⁻¹"}, {"measurement": "self-cleavage kobs at 2500 uM GlcN6P", "setting": "[4]", "result": "3.78e-05 ± 1.6e-05", "unit": "s⁻¹"}]}, {"variant": "G35U G37U G63U U65C", "values": [{"measurement": "self-cleavage kobs at 40 uM GlcN6P", "setting": "[1]", "result": "< 1e-05", "unit": "s⁻¹"}]}, {"variant": "C10A C34A G38U", "values": [{"measurement": "self-cleavage kobs at 40 uM GlcN6P", "setting": "[1]", "result": "< 1e-05", "unit": "s⁻¹"}]}, {"variant": "A6C U49A G51U", "values": [{"measurement": "self-cleavage kobs at 40 uM GlcN6P", "setting": "[1]", "result": "< 1e-05", "unit": "s⁻¹"}, {"measurement": "self-cleavage kobs at 10000 uM GlcN6P", "setting": "[5]", "result": "< 1e-05", "unit": "s⁻¹"}]}, {"variant": "A15C U49A", "values": [{"measurement": "self-cleavage kobs at 40 uM GlcN6P", "setting": "[1]", "result": "< 1e-05", "unit": "s⁻¹"}, {"measurement": "self-cleavage kobs at 640 uM GlcN6P", "setting": "[3]", "result": "< 1e-05", "unit": "s⁻¹"}, {"measurement": "self-cleavage kobs at 10000 uM GlcN6P", "setting": "[5]", "result": "< 1e-05", "unit": "s⁻¹"}]}, {"variant": "G7A C8A A42C U69A", "values": [{"measurement": "self-cleavage kobs at 40 uM GlcN6P", "setting": "[1]", "result": "< 1e-05", "unit": "s⁻¹"}, {"measurement": "self-cleavage kobs at 10000 uM GlcN6P", "setting": "[5]", "result": "< 1e-05", "unit": "s⁻¹"}]}, {"variant": "G60A C61A C67G C68G", "values": [{"measurement": "self-cleavage kobs at 40 uM GlcN6P", "setting": "[1]", "result": "4.45e-05 ± 2.2e-05", "unit": "s⁻¹"}]}, {"variant": "A14G G62A", "values": [{"measurement": "self-cleavage kobs at 40 uM GlcN6P", "setting": "[1]", "result": "< 1e-05", "unit": "s⁻¹"}]}, {"variant": "A36U U47G A53G C68G", "values": [{"measurement": "self-cleavage kobs at 40 uM GlcN6P", "setting": "[1]", "result": "7.44e-05 ± 2.6e-05", "unit": "s⁻¹"}, {"measurement": "self-cleavage kobs at 10000 uM GlcN6P", "setting": "[5]", "result": "0.000107 ± 3.7e-05", "unit": "s⁻¹"}]}, {"variant": "U47G U56G C70A", "values": [{"measurement": "self-cleavage kobs at 40 uM GlcN6P", "setting": "[1]", "result": "7.34e-05 ± 2.5e-05", "unit": "s⁻¹"}, {"measurement": "self-cleavage kobs at 160 uM GlcN6P", "setting": "[2]", "result": "0.000192 ± 3.8e-05", "unit": "s⁻¹"}, {"measurement": "self-cleavage kobs at 640 uM GlcN6P", "setting": "[3]", "result": "6.47e-05 ± 1.3e-05", "unit": "s⁻¹"}, {"measurement": "self-cleavage kobs at 2500 uM GlcN6P", "setting": "[4]", "result": "7.39e-05 ± 1.8e-05", "unit": "s⁻¹"}, {"measurement": "self-cleavage kobs at 10000 uM GlcN6P", "setting": "[5]", "result": "6.01e-05 ± 1.4e-05", "unit": "s⁻¹"}]}, {"variant": "G13U G38C G43U", "values": [{"measurement": "self-cleavage kobs at 40 uM GlcN6P", "setting": "[1]", "result": "< 1e-05", "unit": "s⁻¹"}, {"measurement": "self-cleavage kobs at 10000 uM GlcN6P", "setting": "[5]", "result": "< 1e-05", "unit": "s⁻¹"}]}, {"variant": "C16G G29U", "values": [{"measurement": "self-cleavage kobs at 40 uM GlcN6P", "setting": "[1]", "result": "0.000398 ± 5.9e-05", "unit": "s⁻¹"}, {"measurement": "self-cleavage kobs at 160 uM GlcN6P", "setting": "[2]", "result": "0.00129 ± 0.00034", "unit": "s⁻¹"}, {"measurement": "self-cleavage kobs at 640 uM GlcN6P", "setting": "[3]", "result": "0.00183 ± 0.00046", "unit": "s⁻¹"}, {"measurement": "self-cleavage kobs at 2500 uM GlcN6P", "setting": "[4]", "result": "0.00758 ± 0.0015", "unit": "s⁻¹"}, {"measurement": "self-cleavage kobs at 10000 uM GlcN6P", "setting": "[5]", "result": "0.0203 ± 0.0044", "unit": "s⁻¹"}]}]}
